The record followed here is patent publication US20120244162A1 (MICROMET, published 2012).

Numbering of substitutions follows the chain as printed. Names and notes keep the numbering of the source.

One may read the Kd as the concentration at which binding is half-saturated.

Assay [1] addresses T1, 1-27 CD3-Fc (N-terminal amino acids 1-27 of the mature human CD3 epsilon chain fused to the hinge and Fc … (human)).
T1 construct: also called 1-27 CD3ε-Fc; human CD3 epsilon (aa 1-27)-Fc fusion protein
The assay can be described thus: ELISA, periplasmic scFv on captured 1-27 CD3-Fc. In general terms: ELISA stands for enzyme-linked immunosorbent assay.

For the next assay, the target named is T2, swine 1-27 CD3ε-EpCAM (Sus scrofa CD3 epsilon 1-27, cynomolgus …).
T2 construct: Negative control construct on 293-HEK cells; also called 1-27 CD3-EpCAM comprising the swine 27 mer
T2 chain: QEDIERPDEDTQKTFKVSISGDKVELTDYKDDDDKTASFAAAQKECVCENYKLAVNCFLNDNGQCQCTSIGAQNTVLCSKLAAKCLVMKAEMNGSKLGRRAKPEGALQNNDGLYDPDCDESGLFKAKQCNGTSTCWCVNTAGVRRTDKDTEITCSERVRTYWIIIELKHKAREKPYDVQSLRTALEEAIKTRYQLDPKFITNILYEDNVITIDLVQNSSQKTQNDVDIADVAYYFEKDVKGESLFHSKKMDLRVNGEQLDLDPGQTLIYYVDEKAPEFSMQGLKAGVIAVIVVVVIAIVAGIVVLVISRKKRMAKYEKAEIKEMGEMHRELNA
The assay can be described thus: FACS on transfected 293-HEK cells.

The target in another assay is T3, human 1-27 CD3ε-EpCAM (human CD3 epsilon 1-27, cynomolgus EpCAM).
T3 construct: Transmembrane fusion: CD3 epsilon 1-27, Flag tag, mature cynomolgus EpCAM; on transiently transfected 293-HEK cells; also called 1-27 CD3-EpCAM comprising the human 27 mer
T3 chain: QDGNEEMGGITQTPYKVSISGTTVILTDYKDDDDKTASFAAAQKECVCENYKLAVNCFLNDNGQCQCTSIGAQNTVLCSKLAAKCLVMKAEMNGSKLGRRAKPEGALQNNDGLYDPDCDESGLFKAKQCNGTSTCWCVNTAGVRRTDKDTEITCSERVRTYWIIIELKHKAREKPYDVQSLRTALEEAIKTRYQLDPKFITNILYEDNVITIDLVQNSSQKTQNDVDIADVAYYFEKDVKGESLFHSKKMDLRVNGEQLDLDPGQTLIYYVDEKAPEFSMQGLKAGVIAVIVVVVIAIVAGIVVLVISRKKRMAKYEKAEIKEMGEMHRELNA
The assay is described as follows: FACS on transfected 293-HEK cells, periplasmic scFv.

In assay [2] the target is T4, squirrel monkey 1-27 CD3ε-EpCAM (Saimiri sciureus CD3 epsilon 1-27, …).
T4 construct: also called 1-27 CD3-EpCAM comprising the squirrel monkey 27 mer
T4 chain: T3 chain with M7I, G9D, I10T, T13N, I25T
The description is as above.

The target of a further assay is T5, tamarin 1-27 CD3ε-EpCAM (Saguinus oedipus CD3 epsilon 1-27, …).
T5 construct: On transiently transfected 293-HEK cells; also called 1-27 CD3-EpCAM comprising the tamarin 27 mer
T5 chain: T3 chain with G9D, I10T, T13N, I25T
The assay is described as above.

For another assay, the target named is T6, marmoset 1-27 CD3ε-EpCAM (Callithrix jacchus CD3 epsilon 1-27, …).
T6 construct: On transiently transfected 293-HEK cells; also called 1-27 CD3-EpCAM comprising the marmoset 27 mer
T6 chain: T3 chain with G9D, I10T, T13N, I25T
Described as above.

Assay [3] addresses T7, human CD3 epsilon alanine mutant, position 5 (E5A) (human, UniProt P07766 22-207).
T7 construct: On transfected EL4 cells
The assay is described as follows: alanine scanning, FACS on EL4 transfectants.

The target of assay [4] is T8, human CD3 epsilon alanine mutant, position 1 (Q1A) (human, UniProt P07766 23-207).
T8 construct: On transfected EL4 cells; positions count on the mature chain
The assay can be described thus: alanine scanning, FACS on EL4 transfectants.

Assay [5] addresses T9, human CD3 epsilon alanine mutant, position 2 (D2A) (human, UniProt P07766 22-207).
T9 construct: On transfected EL4 cells
The assay is described as follows: alanine scanning, FACS on EL4 transfectants.

In assay [6] the target is T10, human CD3 epsilon alanine mutant, position 3 (G3A) (human, UniProt P07766 22-207).
T10 construct: On transfected EL4 cells
The assay can be described thus: alanine scanning, FACS on EL4 transfectants.

The target of assay [7] is T11, macaque CD3 on the macaque T cell line 4119LnPx (macaque, UniProt Q95LI5 22-198).
T11 construct: whole, on cells; Native CD3 complex on 4119LnPx cells; also called cynomolgus CD3
The assay is described as follows: FACS, 4119LnPx.

The target of assay [8] is T1, 1-27 CD3-Fc (N-terminal amino acids …). The assay can be described thus: SPR (Biacore 2000), 1-27 CD3-Fc coupled to CM5 chip, analyte 5 µg/ml.

T9 sequence (P07766 other isoform, or with tags, fused parts or gaps limits assumed, stated change not applied): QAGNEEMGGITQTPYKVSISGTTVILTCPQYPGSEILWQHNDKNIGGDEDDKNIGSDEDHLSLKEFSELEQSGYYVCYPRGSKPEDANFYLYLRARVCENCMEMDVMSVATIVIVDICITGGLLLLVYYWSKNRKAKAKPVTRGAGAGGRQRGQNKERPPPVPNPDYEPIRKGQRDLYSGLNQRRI
T7 sequence (P07766 other isoform, or with tags, fused parts or gaps limits assumed, stated change not applied): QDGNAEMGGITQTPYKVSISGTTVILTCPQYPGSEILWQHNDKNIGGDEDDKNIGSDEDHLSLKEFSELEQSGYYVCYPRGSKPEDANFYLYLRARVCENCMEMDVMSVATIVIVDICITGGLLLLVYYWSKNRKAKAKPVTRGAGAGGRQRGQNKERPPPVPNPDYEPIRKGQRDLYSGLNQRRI
T10 sequence (P07766 other isoform, or with tags, fused parts or gaps limits assumed, stated change not applied): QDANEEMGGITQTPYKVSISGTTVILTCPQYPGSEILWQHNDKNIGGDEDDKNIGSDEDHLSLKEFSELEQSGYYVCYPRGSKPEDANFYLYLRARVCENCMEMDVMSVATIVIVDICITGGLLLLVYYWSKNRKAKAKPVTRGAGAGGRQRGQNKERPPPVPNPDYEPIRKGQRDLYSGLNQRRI
T8 sequence (P07766 other isoform, or with tags, fused parts or gaps, stated change not applied): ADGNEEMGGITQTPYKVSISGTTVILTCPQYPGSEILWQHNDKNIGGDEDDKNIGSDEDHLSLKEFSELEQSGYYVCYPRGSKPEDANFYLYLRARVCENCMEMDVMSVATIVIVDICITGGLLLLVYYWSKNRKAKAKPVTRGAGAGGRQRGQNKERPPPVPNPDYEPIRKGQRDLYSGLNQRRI
T11 sequence (Q95LI5 22-198): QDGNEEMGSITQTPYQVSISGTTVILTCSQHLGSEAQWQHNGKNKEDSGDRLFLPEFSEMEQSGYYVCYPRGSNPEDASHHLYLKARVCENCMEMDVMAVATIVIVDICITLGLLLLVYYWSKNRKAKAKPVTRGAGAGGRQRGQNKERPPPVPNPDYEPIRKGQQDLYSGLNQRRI

B1: A2J HLP single-chain antibody (scFv)
scFv: EVQLLESGGGLVQPGGSLKLSCAASGFTFNVYAMNWVRQAPGKGLEWVARIRSKYNNYATYYADSVKKRFTISRDDSKNTAYLQMNNLKTEDTAVYYCVRHGNFGNSYLSWWAYWGQGTLVTVSSGGGGSGGGGSGGGGSELVVTQEPSLTVSPGGTVTLTCRSSTGAVTSGYYPNWVQQKPGQAPRGLIGATDMRPSGTPARFSGSLLGGKAALTLSGVQPEDEAEYYCALWYSNRWVFGGGTKLTVLTGDYKDDDDKHHHHHH
notes: Crude periplasmic preparation; also called VH-VL-P of A2J
As to B1, the binding result in [1] is given as “binds”.

B2: E2M HLP single-chain antibody (scFv)
scFv: B1 scFv with V31G, K68E, G102R, W112F
notes: Crude periplasmic preparation; also called VH-VL-P of E2M
With B2, the binding result is reported as “no binding” in the assay with swine 1-27 CD3ε-EpCAM; “binds” with human 1-27 CD3ε-EpCAM; “binds” in [2]; “binds” with tamarin 1-27 CD3ε-EpCAM; “binds” in the assay with marmoset 1-27 CD3ε-EpCAM; “binds” in [1].

B3: A2J HLP chimeric IgG antibody (murine IgG1 and human lambda constant regions) (antibody, V domains shown)
VH: EVQLLESGGGLVQPGGSLKLSCAASGFTFNVYAMNWVRQAPGKGLEWVARIRSKYNNYATYYADSVKKRFTISRDDSKNTAYLQMNNLKTEDTAVYYCVRHGNFGNSYLSWWAYWGQGTLVTVSS
VL: ELVVTQEPSLTVSPGGTVTLTCRSSTGAVTSGYYPNWVQQKPGQAPRGLIGATDMRPSGTPARFSGSLLGGKAALTLSGVQPEDEAEYYCALWYSNRWVFGGGTKLTVLG
notes: also called IgG antibody A2J HLP
On to B3, for which the binding result in [3], in [4], in assay [5] and in [6] was “no binding” in each case.

B4: E2M HLP chimeric IgG antibody (murine IgG1 and human lambda constant regions) (antibody, V domains shown)
VH: B3 VH with V31G, K68E, G102R, W112F
VL: B3 VL
notes: also called IgG antibody E2M HLP
Consider B4, for which the binding result in [3], in assay [4], in assay [5] and in [6] was “no binding” in each case.

B5: MCSP-G4 HLP × E2M HLP (bispecific antibody)
chain: QVQLVQSGAEVKRPGASMKVSCKASGYTFTNYYIHWVRQAPGQGLEWMGWINPNSGATNYAQKFQGRVTMTRDTSTSTVYMELSSLRSEDTAVYYCAKSWVSWFASWGQGTLVTVSSGGGGSGGGGSGGGGSELVMTQSPDSLAVSLGERATINCKSSQSVLNSSNNRNYLAWYQQKPGQPPKLLIYWASTRESGVPDRFSGSGSGTDFTLTISGLQAEDVAVYYCQQHYSTPFTFGPGTKVDIKSGGGGSEVQLLESGGGLVQPGGSLKLSCAASGFTFNGYAMNWVRQAPGKGLEWVARIRSKYNNYATYYADSVKERFTISRDDSKNTAYLQMNNLKTEDTAVYYCVRHRNFGNSYLSWFAYWGQGTLVTVSSGGGGSGGGGSGGGGSELVVTQEPSLTVSPGGTVTLTCRSSTGAVTSGYYPNWVQQKPGQAPRGLIGATDMRPSGTPARFSGSLLGGKAALTLSGVQPEDEAEYYCALWYSNRWVFGGGTKLTVLHHHHHH
Regarding B5, the binding result in assay [7] is listed as “binds”.

B6: EGFR-21-63 LH × A2J HLP (bispecific antibody)
chain: DIVLTQSPASLPVSLGQRATISCRASQSVSSSTYSYIHWYQQKPGQPPKLLITYASNLESGVPARFSGSGSGTDFTLDIHPVEEDDSSTYYCQHSWEIPFTFGSGTKLEIKGGGGSGGGGSGGGGSQVQLQQSGPDLVKPGASVKMSCKASGHTFTDCVIIWVKQRAGQGLEWIGQIYPGTGRSYYNEIFKGKATLTADKSSNTVHIQLSSLTSEDSAVYFCALSTLIHGTWFSYWGQGTLVTVSSGGGGSEVQLLESGGGLVQPGGSLKLSCAASGFTFNVYAMNWVRQAPGKGLEWVARIRSKYNNYATYYADSVKKRFTISRDDSKNTAYLQMNNLKTEDTAVYYCVRHGNFGNSYLSWWAYWGQGTLVTVSSGGGGSGGGGSGGGGSELVVTQEPSLTVSPGGTVTLTCRSSTGAVTSGYYPNWVQQKPGQAPRGLIGATDMRPSGTPARFSGSLLGGKAALTLSGVQPEDEAEYYCALWYSNRWVFGGGTKLTVLHHHHHH
notes: Bispecific single chain antibody; also called EGFR LH × A2J HLP
Molecule B6 yielded a Kd in assay [8] of 0.249 µM.

B7: EGFR-21-63 LH × E2M HLP (bispecific antibody)
chain: B6 chain with V282G, K319E, G353R, W363F
notes: Bispecific single chain antibody; also called EGFR LH × E2M HLP
Molecule B7 had a dissociation constant (Kd) in assay [8] of 2.46 µM.
